The values that follow come from PMC2964344.

The conditions of this data set: methylation at K27.

Turning to “histone H3: ATXR6 Y243N (SET-domain catalytic mutant) expressed in atxr5 atxr6”, the other result is given as “changes”.
